# Measurements taken from a protein production outcome set (Wang et al. 2014).
# Assay: label from the status in PepcDB records
row,Sequence,protein production
1,MTYKSLPVAEKIQSYWNRRARLVIVTSFTILCAAATIYFHMILGVEIVFTHLFYIPMVFAAVWFGRRSFIVTAFLGTVLLVTHALASLGGFQDDVMRLSVMFFVNAITVILSESIGESEEALAESEEKYRTIVESARDAIITVDGNGSIVSWNSAAEKIFGYRAAEMMGRHIDTIITEENLEKHDFNRIIDREISIMVTDVEGVRKDGTRVPLEISVFSWNYMDEKFITAVIRDVTERKMAENALIESERKFRAVFDGVEDIITIVEIRENGLPGKYIEVNRAAVEKLGYSRDELLRMTPADMGVSREQSYDIIKNLLRSGKVTFNRTYISRDGRRIPVEVNSRLLELGEMKVAVSVARDITQRLENERRLRESEEKYRSLFDLSPEYILLLDPEDGRILDVNSTLAGTLGIPSEELRGRSIYELEFLSDDVKTEFRSKIEVIERDGTLEPYEMVLTDPYGREYTVRIYNKLIHAEGRECLLIVLNDISDLKRTQSMLEKSLAEKELLLKEIHHRVKNNLMIISSLLSLQSRQAKDRETMDLFRESENRTRSMVLIHERLYRSEDLKNIDLAEYLGRLASEIFRSYSADSRIRLKLEIDELKVDVETAVPLGLIVNELLTNAVKHAFPDGEGTVTVSLRKRNGTVTLEVSDDGAGFPEDIDWESSPSLGLQLVRKPH,failed
2,MGKDLAECYLGLGSTFRTLGEYRKAEAVLANGVKQFPNHQALRVFYAMVLYNLGRYEQGVELLLKIIAETSDDETIQSYKQAILFYADKLLEHHHHHH,failed
3,MATRMTTIRRQTKMAIGQRIKYFRNRIGMTQKQLGEQLGFKGKTSDVRMAQYESEARVPKIDLVKQMSQIFDINTHALTVPDIDTHIGLMHTLFALEDMYGLKVKNVDGQPHLWLDSSISAPSSSVDEMFRAWMEQADKLENGEISKEEYDEWRYKYPELDTYQKRAKVPSQELSDYLVKELTKKEK,failed
4,MELQLAIDLLNKEEAAKLAQKVEEYVDIVEIGTPIVINEGLPAVQHLNENINNAKVLADLKIMDAADYEVSQAVKYGADIVTILGVAEDASIKAAVEEAHKHGKALLVDMIAVQNLEQRAKELDEMGADYIAVHTGYDLQAEGKSPLDSLRTVKSVIKNSKVAVAGGIKPDTIKDIVAEDPDLVIVGGGIANADDPVEAAKQCRVAIEGK,failed
5,MARQLDEQIAGRFPVGQRLRVLDVGMGQGTQALRLARAGHQVTGVEQDATMIAVARETLAAEPEGIRSRMRLVQSDGRDTGVHFLPGSFDVVLCHGVLMYVEDPDALLAGLARMLAPGGLLSLLVRNADALAMRPGLAGDWASALTSFDTTAYTNRLGLDVRADRLDALTSTLAGIGAPLHAWYGVRVFTDTAADGAELPADVETLLAAEERAGRTDPYRQVAALLHLCGVRGGGAP,failed
6,MPVEITVKELLEAGVHFGHERKRWNPKFARYIYAERNGIHIIDLQKTMEELERTFRFIEDLAMRGGTILFVGTKKQAQDIVRMEAERAGMPYVNQRWLGGMLTNFKTISQRVHRLEELEALFASPEIEERPKKEQVRLKHELERLQKYLSGFRLLKRLPDAIFVVDPTKEAIAVREARKLFIPVIALADTDSDPDLVDYIIPGNDDAIRSIQLILSRAVDLIIQARGGVVEPSPSYALVQEAEATETPEGESEVEA,not failed
7,MEYHLRTKLNGNIAMTSCFHENSFLQCDRSLYKFIWVRHGALDVEVDHVVMHLEKEEMISLTPLHHVQIRGVDGEYLTFLFNSNFYCIYGHDSEVSCNGFLFNGSSRVMRLKLSPSQSARLDSIVDIFRGECGIQDNLQEEMLRIILKRFIITCTRIAREKFDVDPGRENMFDVIRQFYVLVDSHFKEKKQVQDYADMLCRSPKTISNLFSLYGLSSPLRVIHERVDAEAKRLLLYTGKSAKEISEILGFEDLATFSRFFKKMNKESLSEYRKREKRE,not failed
8,MTRPLRWWKRACPGAALRRDVNAFPPPSLAKLSAVFTIRRQPELDRRPQGASAGGALQALIAALPFALRPSRLSRQAKRPWTRACRRRLPATVGAGSLAAMDSAQPNTAAARYKSFAAFYPFYMTEHANPVSRRLHVVGTSLVIVCLVLGVFRDWRFFIAAPVIGYGFAWIGHFVFEKNRPATFKYPVYSLMGDFRLWFETVTGRRKF,failed
